Reference: patent US20060205646A1

Target: MMPs in infected porcine wound fluid
Experiment: cell-based or functional assay

- inhibition of MMP activity (Fluorogenic Peptide Substrate I), 0.4 mg/mL γ-D-crystallin: 50%
Substance: γ-D-crystallin (from UniProt P07320 2-174)
